Blank lines part the entries; values can stand above or below the molecule they belong to.
Key:
[1] = biological target: T1, recombinant human HSD17B13 (Homo sapiens, UniProt Q7Z5P4); assay: Substrate screening of steroid and bioactive lipid libraries against purified recombinant HSD17B13 (NADH-Glo); type: biochemical; conditions: putative substrate screen with recombinant protein
T1 sequence (Q7Z5P4 20-300): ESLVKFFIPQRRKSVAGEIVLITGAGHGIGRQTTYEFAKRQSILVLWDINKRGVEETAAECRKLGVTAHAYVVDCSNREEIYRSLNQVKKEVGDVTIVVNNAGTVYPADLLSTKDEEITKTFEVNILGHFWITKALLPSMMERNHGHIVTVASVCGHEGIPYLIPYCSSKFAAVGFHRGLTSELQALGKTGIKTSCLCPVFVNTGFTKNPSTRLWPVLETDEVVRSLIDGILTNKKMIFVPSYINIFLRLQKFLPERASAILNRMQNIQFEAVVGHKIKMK
Description: Reactions were performed in a final volume of 40 μL of assay buffer (0.2 M Tris-HCl, pH 7.5) which contained 500 μM NAD^±, 5 μM bioactive lipid or 50 μM steroid (all in a final concentration of 5% DMSO), and 100 ng recombinant human HSD17B13. Reactions were incubated for 3 hours, at 23° C., after which an equal volume NADH-Glo Detection Reagent (Promega) was added. Following a 1 hour incubation at 23° C., the relative light units (RLUs) were measured on an Envision Plate Reader (Perkin Elmer). Raw RLU values were normalized as percent of control (50 μM estradiol) following subtraction of negative control (5% DMSO) using the following formula: Percent of control (POC)=100×(Sample (RLU)−Negative CTRLaverage)/(Positive CTRLaverage−Negative CTRLaverage).

HepG2 cells = assay: Quantification of intracellular triglyceride content in stable cell lines; type: cell-based, human; conditions: for intracellular triglyceride content versus GFP control: cell lines overexpressing isoform, oleic acid treatment
Description: HepG2 cells were cultured in Eagle's Minimum Essential Medium supplemented with 10% fetal bovine serum. HSD17B13 transcripts A and D were sub-cloned into Myc-DDK backbone lentivirus constructs, and lentivirus were generated. HepG2 cells were infected with lentivirus carrying the HSD17B13 transcripts. Stable cell lines expressing each HSD17B13 transcript were selected with 1-3 mg/ml Geneticin G-418 sulfate in complete culture medium for two weeks. Following fixation, HSD17B13 isoforms were detected with mouse anti-Myc antibody. Lipid droplets were labeled with BODIPY FL dye (Sigma). Secondary antibodies for immunofluorescence were Alexa Fluor 488 donkey anti-rabbit IgG and Alexa Fluor 594 donkey anti-mouse IgG (Jackson ImmunoResearch).
The triglyceride (TG) content from the stable cells was determined using a TG quantification kit (Abcam). In the assay, TG are converted to free fatty acids and glycerol. The glycerol is then oxidized to generate a product which is quantified (spectrophotometry at λ=570 nm).

HSD17B13 = biological target: T2, HSD17B13 (Homo sapiens, UniProt Q7Z5P4); assay: In vitro enzymatic activity of recombinant HSD17B13 isoforms A and D (NADH production, NAD(P)H-Glo); type: biochemical
T2 construct: Transcript A, which encodes the full-length 300 amino acid protein; 10x His (C); host or cells: E. coli
T2 sequence (Q7Z5P4 with tags, fused parts or gaps): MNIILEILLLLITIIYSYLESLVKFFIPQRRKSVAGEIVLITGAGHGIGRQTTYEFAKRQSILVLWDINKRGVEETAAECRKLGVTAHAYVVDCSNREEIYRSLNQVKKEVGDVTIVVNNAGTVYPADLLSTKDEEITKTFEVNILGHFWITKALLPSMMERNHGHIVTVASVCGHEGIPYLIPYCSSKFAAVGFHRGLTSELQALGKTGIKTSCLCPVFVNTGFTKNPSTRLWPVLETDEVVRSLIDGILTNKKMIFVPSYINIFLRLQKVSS
Description: Recombinant human HSD17B13 protein was purified from E. coli (Genscript) transformed with plasmid DNA harboring HSD17B13 transcript A or transcript D. The HSD17B13 variants contained a 10× His tag at the C terminus and were purified from soluble fraction using a Ni2^+ affinity purification. Enzymatic activity was determined through measurement of NADH production using the NAD(P)H-Glo Detection System (Promega). Reactions were performed for 3 hours at 25° C. in 0.2 M Tris-HCl, pH 7.5, 0.5 mM NAD^+, 75 μM of substrate (Sigma) and 500 ng purified enzyme in a final volume of 100 μL. After incubation, 20 μL of the reaction was combined with 20 μL luciferase reagent (Promega), incubated at room temperature for 1 hour and read on an Envision Plate Reader (Perkin Elmer).

[2] = tested on: HEK293 cells overexpressing HSD17B13 transcript A, transcript D or GFP; assay: Cell-based estradiol to estrone conversion in culture media (LC-MS); set-up: species or system human; conditions: overexpressed in HEK293 cells, estradiol 1 μM, 48 hours
Description: HEK293 cells overexpressing HSD17B13 transcript A, transcript D or green fluorescent protein (GFP, control) were used to investigate the activity of HSD17B13 against estradiol in a cell-based assay. Estradiol (1 μM) was fed to each cell type. After 48 hours, the media was collected and the concentration of estradiol and its converted product estrone were identified and quantified by LC-MS.

Molecule: CCCCCCCC/C=C\CCCCCCCC(=O)O [oleic acid, reference compound]
triglyceride (TG) content (HepG2 cells; increasing concentrations of oleic acid, HepG2 GFP control and HSD17B13 Transcript A and D cell lines): increased triglyceride (TG) content

Molecule: CCCCCC(O)C=CC=CCCCCCCCC(=O)O (stereo not drawn) [13-Hydroxyoctadecadienoic acid]
enzymatically converted by HSD17B13 (oxidation of a hydroxyl to a ketone group) [1]: enzymatically converted

B1: HSD17B13 Isoform D: HSD17B13 Protein Isoform D, SEQ ID NO: 15; prematurely truncated protein encoded by Transcript D of the rs72613567 variant (protein, listed as Homo sapiens)
chain: T2 sequence (Q7Z5P4 with tags, fused parts or gaps)
modifications: (1)..(70) Region Encoded by Exon 1; (71)..(106) Region Encoded by Exon 2; (107)..(150) Region Encoded by Exon 3; (151)..(185) Region Encoded by Exon 4; (186)..(232) Region Encoded by Exon 5; (233)..(271) Region Encoded by Exon 6v2; (272)..(274) Region Encoded by Exon 7
activity towards the three substrates (HSD17B13; estradiol, leukotriene B4, 13-Hydroxyoctadecadienoic acid, recombinant protein in vitro): greatly reduced activity
activity towards estradiol in vitro compared to HSD17B13 isoform A (HSD17B13; estradiol, recombinant protein, NAD cofactor): greatly reduced activity
enzymatic activity of the corresponding values for Isoform A (HSD17B13; substrates 17-beta estradiol, leukotriene B4, 13(S)-HODE, recombinant protein): < 10%
conversion of estradiol (substrate) to estrone (product) measured in the culture media [2]: did not show much conversion
conversion of estradiol (substrate) to estrone (product) measured in the culture media ([2]; listed as HSD17B13 isoform D): greatly reduced activity
intracellular triglyceride content versus GFP control (HepG2 cells): No differences

B2: HSD17B13 Isoform A: HSD17B13 Protein Isoform A, SEQ ID NO: 12; full-length 300 amino acid protein encoded by Transcript A (protein, listed as Homo sapiens)
chain: MNIILEILLLLITIIYSYLESLVKFFIPQRRKSVAGEIVLITGAGHGIGRQTTYEFAKRQSILVLWDINKRGVEETAAECRKLGVTAHAYVVDCSNREEIYRSLNQVKKEVGDVTIVVNNAGTVYPADLLSTKDEEITKTFEVNILGHFWITKALLPSMMERNHGHIVTVASVCGHEGIPYLIPYCSSKFAAVGFHRGLTSELQALGKTGIKTSCLCPVFVNTGFTKNPSTRLWPVLETDEVVRSLIDGILTNKKMIFVPSYINIFLRLQKFLPERASAILNRMQNIQFEAVVGHKIKMK
modifications: (1)..(70) Region Encoded by Exon 1; (71)..(106) Region Encoded by Exon 2; (107)..(150) Region Encoded by Exon 3; (151)..(185) Region Encoded by Exon 4; (186)..(232) Region Encoded by Exon 5; (233)..(271) Region Encoded by Exon 6v1; (272)..(300) Region Encoded by Exon 7
conversion of estradiol (substrate) to estrone (product) measured in the culture media [2]: robust conversion
intracellular triglyceride content versus GFP control (HepG2 cells): No differences

More lines, now with the values ahead:

enzymatically converted by HSD17B13 (oxidation of a hydroxyl to a ketone group) [1]: enzymatically converted
Molecule: CCCCC/C=C\C[C@@H](O)/C=C/C=C/C=C\[C@@H](O)CCCC(=O)O [leukotriene B4]

enzymatically converted by HSD17B13 (oxidation of a hydroxyl to a ketone group) [1]: enzymatically converted
Molecule: C[C@]12CC[C@@H]3c4ccc(O)cc4CC[C@H]3[C@@H]1CC[C@@H]2O [estradiol, 17-beta estradiol]
